Experimental findings from article doi:10.1101/2025.08.13.669063 are described below.

Test [1] addresses cobalamin binding domains of Thermus thermophilus CarH (TtCBD) (Thermus thermophilus). Nature of the test: time-resolved X-ray solution scattering.
The target is the same in test [2]. As to the kind of experiment: crystal structure.

In test [1], “cobalamin binding domains of Thermus thermophilus CarH (TtCBD) (domain or fragment)” returned a stoichiometry N of 4 and a time constant of tetramer dissociation after photoexcitation of 620 ms. The stoichiometry N in test [2] was found to be 4.

As a reminder, the stoichiometry N is a count of units in the complex or per binding partner.
